Legend:
[1] = biological target: T1, FOLR3, commercial purified protein (R&D Systems Cat. No. 5319-FR) (human, UniProt P41439 23-245, limits assumed); assay: ELISA on coated FOLR3 protein
T1 construct: Coated on the ELISA plate; also called folate receptor gamma (FOLR3)
Procedure: FOLR3 binding: ELISA 96-well plate was coated with commercial purified FOLR3 protein (R&D Systems, Inc., Minneapolis, MN; Cat. No. 5319-FR) for 1 hr at 37° C. The plate was blocked with 1% milk in PBS pH 7.4 for 1 hr at RT. Following blocking, primary antibodies were added at 7 nM for 1 hr at RT. […] Plates were developed using tetramethylbenzidine (TMB) and HCl was used to stop reaction. Absorbance was read at 450 nm using a Synergy™ H1 microplate reader (BioTek Instruments, Winooski, VT).

human FRα on cells [2] = biological target: T2, human FRα on cells (human, UniProt P15328 25-234); assay: apparent Kd, flow cytometry on JEG-3 cells (endogenous FRα), 24 h at 4°C
T2 construct: Transiently expressed on HEK293-6e, CHO-S or HEK293 microarray cells, or endogenous on JEG-3, HEC-1-A, IGROV-1, OVCAR-3, H2110, KB-HeLa and T-47D cells; also called human folate receptor alpha; FOLR1
T2 sequence (P15328 25-234 limits assumed): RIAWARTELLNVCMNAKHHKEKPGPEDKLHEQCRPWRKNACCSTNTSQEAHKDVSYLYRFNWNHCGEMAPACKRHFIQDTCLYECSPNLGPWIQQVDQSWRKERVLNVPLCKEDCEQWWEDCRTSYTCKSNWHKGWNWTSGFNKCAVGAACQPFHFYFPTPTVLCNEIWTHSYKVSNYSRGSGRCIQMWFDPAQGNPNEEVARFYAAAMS
Procedure: Briefly, cells were seeded at 50,000 cells/well in V-bottom 96-well plates and treated with antibody for 24 hours at 4° C. to prevent internalization. […] Following incubation and washing, fluorescence was detected by flow cytometry on a BD LSRFortessa™ Cell Analyzer (BD Biosciences, Franklin Lake, NJ) with 1,000 minimum events collected per well. AF647/APC-A GeoMean (fluorescence signal geometric mean, proportional to anti-Human AF647 binding) in live cell population was plotted using GraphPad Prism Version 9 (GraphPad Software, San Diego, CA).

human FRα on cells [3] = biological target: T2, human FRα on cells; assay: apparent Kd, flow cytometry, CHO-S cells transiently expressing human FRα, 24 h at 4°C
Procedure: (§1) Briefly, CHO-S cells were transfected for −24 hours to transiently express human or cynomolgus monkey FRα, 1 ug DNA per 1 million cells. Following transfection, cells were seeded at 50,000 cells/well in V-bottom 96-well plates and treated with antibody for 24 hours at 4° C. to prevent internalization. […] Following incubation and washing, fluorescence was detected by flow cytometry on a BD LSRFortessa™ Cell Analyzer (BD Biosciences, Franklin Lake, NJ).

[4] = biological target: T3, recombinant His-tagged human FRα (ACROBiosystems) (human, UniProt P15328 25-233); assay: BLI (Octet RED96): antibody on anti-human IgG Fc capture biosensor, His-tagged hFRα as analyte, 1:1 global fit, mean of n=2
T3 construct: also called hFRα; hFRα antigen; not shown: His tag
T3 sequence (P15328 25-233 limits assumed): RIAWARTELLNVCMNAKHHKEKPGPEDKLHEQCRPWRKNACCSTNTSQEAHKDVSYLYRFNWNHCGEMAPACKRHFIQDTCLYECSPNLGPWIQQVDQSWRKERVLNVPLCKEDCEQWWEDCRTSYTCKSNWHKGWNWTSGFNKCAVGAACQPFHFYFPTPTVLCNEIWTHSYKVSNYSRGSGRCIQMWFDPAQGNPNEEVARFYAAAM
Method in brief: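 Run at 30° C with 1000 rpm shaking in kinetics buffer (PBS pH 7.4, 0.1% BSA, 0.02% Tween 20, 0.05% sodium azide) plus 0.06% Tween 20, sometimes 1% BSA. Reference-subtracted curves globally fitted to a 1:1 model, giving kon, koff and KD.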

[5] = biological target: T4, cynomolgus monkey FRα on cells (cynomolgus monkey, UniProt P15328 29-234 (human entry)); assay: apparent Kd, flow cytometry, CHO-S cells transiently expressing cynomolgus monkey FRα (same experiment as Table 15.1, more digits)
T4 construct: Transiently expressed on CHO-S cells; also called Cyno FRα; cynomolgus FRα
T4 sequence (P15328 other isoform, or with tags, fused parts or gaps limits assumed): as the sequence (P15328 25-234 limits assumed) above, with I2T, A3T, W4R, R37K, A146P, H171Y counted along it
Procedure: as §1

[6] = biological target: T3, recombinant His-tagged human FRα …; assay: SPR (Biacore T200): hFRα amine-coupled to CM5 chip at high antigen density, bivalent FSA injected, 1:1 Langmuir fit, mean of n=2
Procedure: CM5 Series S sensor chip, Biacore™ amine coupling kit (NHS, EDC and 1 M ethanolamine), and 10 mM sodium acetate buffers were purchased from GE Healthcare Life Science (Mississauga, ON, Canada). PBS running buffer with 0.05% Tween20 (PBST) was purchased from Teknova Inc. (Hollister, CA). Recombinant human FRα was purchased from ACRObiosystems (Newark, DE).
Screening of the variants for binding to hFRα antigen was conducted in two steps: capture of hFRα onto surface, followed by injection of three to five concentrations of variant. The hFRα surface was prepared on a CM5 Series S sensor chip by standard amine coupling methods as described by the manufacturer (GE Healthcare Life Science, Mississauga, ON, Canada). The immobilization of the hFRα was performed using Biacore™ T200 immobilization wizard with an amine coupling method aiming for resonance units (RUs) ranging from 5 to 200 RUs. Using multi-cycle kinetics, three to five concentrations of a two-fold dilution series of samples starting at 300 nM with a blank buffer control were injected at 50 uL/min for 180s with a 600s dissociation phase, resulting in a set of sensorgrams with a buffer blank reference. The hFRα surface was regenerated to prepare for the next injection cycle by one pulse of 10 mM glycine/HCl pH 1.5 for 30s at 30 uL/min. Blank-subtracted sensorgrams were analyzed using Biacore™ T200 Evaluation Software v3.0. The blank-subtracted sensorgrams were then fit to the 1:1 Langmuir binding model.

[7] = biological target: T3, recombinant His-tagged human FRα …; assay: BLI (Octet RED96): antibody loaded on anti-human IgG Fc capture biosensors, His-tagged hFRα in solution. Six traces with fit lines plateau between about 0.17 and 0.5 nm during 0-400 s association and decay almost to baseline by 900 s. The legend prints the same globally fitted KD for all six traces (single run; the text prints only the mean of n=2).
Procedure: The assay buffer used was KB buffer (kinetics buffer, composed of PBS pH 7.4, 0.1% BSA, 0.02% Tween 20, 0.05% sodium azide) supplemented with 0.06% Tween 20 and in some instances also with 1% BSA. The experiment was conducted at 30° C. with a shake speed of 1000 rpm.
Data analysis was performed using Data Analysis Software 9.0 (ForteBio, Fremont CA). The reference-subtracted binding curves were globally fitted to the 1:1 interaction model to generate the binding kinetic parameters kₒₙ, koff, and the dissociation constant KD.

T1 sequence (P41439 23-245 limits assumed): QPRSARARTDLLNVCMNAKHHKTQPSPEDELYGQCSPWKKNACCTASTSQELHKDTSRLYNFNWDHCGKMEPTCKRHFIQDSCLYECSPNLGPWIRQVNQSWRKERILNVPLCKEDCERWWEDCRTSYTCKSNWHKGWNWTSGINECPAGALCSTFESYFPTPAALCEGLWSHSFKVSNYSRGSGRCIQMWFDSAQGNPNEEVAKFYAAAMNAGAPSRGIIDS

binding result [1]: no binding (tested: 7 nM) | Kd (human FRα on cells [2]): 0.32 nM | Kd (human FRα on cells [3]): 0.08 nM | Kd [4]: 27 nM | Kd [5]: 0.122 nM | Kd [6]: 0.278 nM | Kd [7]: 20.6 nM
B1: v23924 (antibody, human IgG1, kappa, V domains shown)
VH: QSVKESEGGLFKPTDTLTLTCTVSGFSLSSYGVSWVRQAPGNGLEWIGAVNSGGSAYYANWAKSRSTITRNTNLFTVTLKMTSLAVADTATYFCARSGSGYPMDYLAIWGPGTLVTVSS
VL: AYDMTQTPASVEVAVGGTVTIKCQASQSIGDWLAWYQQKPGQPPRLLIYEASTLASGVPSRFSGSGSGTQFTLTISGVECADAATYYCQQGYGRSNVDNIFGGGTEVVVKR
notes: Rabbit-human chimeric full-size antibody, human IgG1/kappa, HomoFc; also called variant v23924; parental chimeric anti-FRα antibody
